The series concerns the molecule itself. The series can be described thus: crystal structure; His-SUMO tagged P. shigelloides NagK crystallised by the microbatch method; X-ray data at 100 K.

B1: N-acetylglucosamine kinase (NagK) from Plesiomonas shigelloides (enzyme)
chain: MYYGFDIGGTKIEFGAFDADLVRVARERVATPTESYAAFLDAIVTLVNNADAEFGVKGTVGIGIPGIADVETGKLLTSNIPAAMGHTLQRDLEERLQRPVKIENDANCFALSEAWDEDLRGEPSVLGLILGTGVGGGLIFNGKVHSGRANIAGEIGHTRLPYDALKLLGMENAPIFPCGCKNSGCIDNYLSGRGFEQLYDHYFSEKLSAPEIIAHYEQGERRAVQHVERFMELLAICLANIFTCLDPHVVVLGGGLSNFELIYQELPKRLPAHLLHVAKLPKIIKARHGDAGGVRGAAFLNL
notes: N-acetylglucosamine kinase NagK of Plesiomonas shigelloides, codon optimised gene in pOPINS3C; His-SUMO tagged construct (pOPINS3C) used for crystallisation; no cleavage of the tags is described; also called PsNagK; P. shigelloides NagK; source: E. coli BL21 (DE3), purified (HisTrap, Superdex 200 size exclusion); not shown: polyhistidine, N-terminal, kept; SUMO, N-terminal, kept
B1: the binding result is “binds”.

These data come from paper doi:10.1101/2021.09.30.462564 (bioRxiv, 2021).
